The results in this text go back to PMC12171399.

For assay [1], the target named is secreted form of VEGF-A-HisTag expressed in Expi293 cells (mouse) (UniProt Q00731). The experiment in a line: SDS-PAGE; VEGF-A-HisTag from Expi293 culture media, purified on a heparin affinity column.
The target in assay [2] is VEGF-A-HisTag refolded from inclusion bodies of BL21(DE3) (mouse). The experiment in a line: SDS-PAGE under reducing and non-reducing conditions; purified protein; disulfide-linked homodimer told from monomer by comparing migration under reducing or non-reducing conditions; 5%-20% gradient gel; refolded samples after cation-exchange chromatography.
Assay [3] addresses non-tagged mature mouse VEGF-A (188 amino acids form), refolded from TAPS-VEGF-A (mouse). The description is as above.

Regarding “secreted form of VEGF-A-HisTag expressed in Expi293 cells (from UniProt Q00731 1-392) (ligand)”, the stoichiometry N (as a rule, a count of units in the complex or per binding partner) in assay [1] stood at 2.

“VEGF-A-HisTag refolded from inclusion bodies of BL21(DE3) (ligand)” came in with a stoichiometry N in assay [2] of 2.

In assay [3], “non-tagged mature mouse VEGF-A (188 amino acids form), refolded from TAPS-VEGF-A (ligand)” displayed a stoichiometry N of 2.
